The assay has as its target hCD3ε 1-27 Fc (human). As to the kind of experiment: SPR (Biacore).

hCD3ε 1-27 Fc (human), sequence (chain, as listed by the source): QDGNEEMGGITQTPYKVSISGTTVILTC

B1: 38E4v1 (antibody, V domains shown)
VH: EVQLVQSGAEVKKPGASVKVSCKASGFTFTSYYIHWVRQAPGQGLEWIGWIYPENDNTKYNEKFKDRVTITADTSTSTAYLELSSLRSEDTAVYYCARDGYSRYYFDYWGQGTLVTVSS
VL: DIVMTQSPDSLAVSLGERATINCKSSQSLLNSRTRKNYLAWYQQKPGQSPKLLIYWTSTRKSGVPDRFSGSGSGTDFTLTISSLQAEDVAVYYCKQSFILRTFGQGTKVEIK
In turn, B1 displayed a Kd of 1 nM. That is a single-digit nanomolar value.

B2: 40G5c (antibody, V domains shown)
VH: EVQLVQSGAEVKKPGASVKVSCKASGYTFTNYYIHWVRQAPGQGLEWIGWIYPGDGNTKYNEKFKGRATLTADTSTSTAYLELSSLRSEDTAVYYCARDSYSNYYFDYWGQGTLVTVSS
VL: DIVMTQSPDSLAVSLGERATINCKSSQSLLNSRTRKNYLAWYQQKPGQPPKLLIYWASTRESGVPDRFSGSGSGTDFTLTISSLQAEDVAVYYCTQSFILRTFGQGTKVEIK
In turn, B2 had a Kd of 13 nM.

These data come from patent US20200148774A1.
